In patent publication US9458427B2, “IFNγR2 compositions and methods of inhibiting neuronal cell death” (Case Western Reserve University, priority 2009, dated 2016):
Each block holds one molecule with its values, some of them ahead of it. Ends that are not written are not given here.

Assays:
Bax [1] = target: T1, Bax (Homo sapiens, UniProt Q07812); test: Apoptosis induced by Bax overexpression in HEK293 cells (Hoechst nuclear staining); type: cell-based; set-up: expressed in transfected cells; host or cells: HEK293; details: HEK293 cells co-transfected with pcDNA3-h Bax and pEGFP-C2-IFNγR2 construct, 24 h after transfection
Protocol: (§1) Cells were cultured overnight in DMEM supplemented with 10% FBS. The transfections were performed using […]® (Qiagen, Valencia, Calif.) in accordance with the manufacturer's instructions. Transfection efficiency was analyzed by the expression of the EGFP-tagged proteins.
(§2) Apoptosis was induced by transfecting the cells with pcDNA3-human Bax, or pcDNA3-human Bak, or pcDNA3-human Bim EL, or by treatment with etoposide (10 μM) or staurosporine (100 nM). To determine the induction of apoptosis by different apoptotic stresses, cells were stained with Hoechst 33258 dye, and the numbers of cells with apoptotic nuclei were counted using fluorescence microscopy. Three hundred cells were analyzed in triplicate samples. […] Caspase activity were measured by using a fluorogenic caspase 3 substrate II (Calbiochem), IFNγR2 constructs were cloned in pEGFP-C2 (IFNγR2wild type, IFNγR21-295 and IFNγR2296-337) vector.
(§3) For Bax, Bak or Bim EL overexpression, cells were transfected with either 1 μg pcDNA3-human Bax, 1 μg pcDNA3-human Bak, or 1 μg pcDNA3 human Bim EL, and 4 μg of pEGFP plasmid encoding IFNγR2, and the apoptosis or caspase activity was determined 24 h after the transfection.

human Bim EL = test: Apoptosis induced by Bim overexpression in HEK293T cells; type: cell-based; details: 24 h after transfection
Protocol: as §1, §2, §3

Bax [2] = target: T1, Bax; test: Staurosporine-induced Bax activation in HeLa cells (6A7 antibody immunostaining); type: cell-based; set-up: endogenous in cells; host or cells: HeLa; details: staurosporine 100 nM, 3 h
Protocol: HeLa cells were transiently transfected with pEGFP-C2-IFNγR2 (wild type 1-295, or 296-337) using […]® (Qiagen, Valencia, Calif.) in accordance with the manufacturer's instructions. Four micograms of the plasmid were used to transfect cells cultured in 6-cm diameter dishes. After 24 h of transfection, the cells were treated with staurosporine (100 nM) for 3 h. Then, the cells were washed with phosphate buffer pH 7.4 (PBS), fixed using paraformaldehyde (1%), permeabilized with Triton X-100 (0.02%), blocked with goat serum, and the activation of Bax was analyzed by immunocytochemistry using monoclonal Bax 6A7 antibody (BDPharmingen) and ALEXA FLUOR® 568-labeled anti-mouse IgG secondary antibody (Invitrogen).

[3] = system: HT1080 (IFNγR2 null mutant and JAK2 null mutant) cells; test: Etoposide-induced apoptosis in HT1080-derived IFNγR2 null and Jak2 null cells (Hoechst nuclear staining); type: cell-based, human; details: cells lacking IFNγR2 and Jak2, 10 μM etoposide for 24 h
Protocol: HT1080 (wild type, IFNγR2 null mutant and JAK2 null mutant) cells were cultured in Dulbecco's Modified Eagle's Medium (DMEM) supplemented with 10% fetal bovine serum (FBS). HeLa, Human Embryonic Kidney (HEK) 293 and HEK293T cells were purchased from ATCC, and cultured in DMEM supplemented with 10% FBS. LNCap and PC3 cells were purchased from ATCC and cultured in DMEM F12 medium supplemented with 10% FBS. RWPE1 and RWPE2 were purchased from ATCC and cultured in keratinocytes-SFM plus supplements medium (Gibco). Primary mammary epithelial (4A100) cultures were derived from organoids isolated from discarded mammary tissue acquired from patients undergoing reduction mammoplasty surgery. Anonymized specimens were acquired from patients who had given written consent, through the Tissue Procurement and Histology Core Facility of the Case Comprehensive Cancer Center (Case), under a Case CCC IRB approved protocol. Primary epithelial cultures were grown in M87A+X medium. Human HME1 cells (Clontech) were grown in medium 171 with mammary epithelial growth supplement (Cascade Biologics) and penicillin-streptomycin.42 Human breast cancer cell line MDA-MD468 was cultured in RPMI, 5% FBS, supplemented with L-glutamine, penicillin-streptomycin and fungizone (Gibco). […]
Cells were cultured overnight in DMEM supplemented with 10% FBS. […] Transfection efficiency was analyzed by the expression of the EGFP-tagged proteins.
as §2

T1 sequence (Q07812 whole entry): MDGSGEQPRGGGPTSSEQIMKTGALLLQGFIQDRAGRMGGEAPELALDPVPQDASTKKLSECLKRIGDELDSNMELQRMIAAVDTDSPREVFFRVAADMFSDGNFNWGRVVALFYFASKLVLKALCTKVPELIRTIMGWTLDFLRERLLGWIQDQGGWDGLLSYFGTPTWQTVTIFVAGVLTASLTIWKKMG

Inhibition of STS-induced Bax activation (6A7 Ab-positive cells in GFP-positive cells) (Bax [2]): inhibited STS-induced Bax activation
Molecule: IFNγR2296-337: mutant encoding amino acids 296-337 of IFNγR2, lacking the Jak2-binding domain; expressed as EGFP fusion (KDPTQPILEALDKDSSPKDDVWDSVSIISFPEKEQEDVLQTL; also: EGFP fusion; listed as Homo sapiens)
Inhibition of apoptosis induced by Bax overexpression (Bax [1]): able to inhibit apoptosis induced by Bax overexpression
Inhibition of apoptosis induced by Bim overexpression (human Bim EL): able to inhibit apoptosis induced by Bim overexpression
Inhibition of etoposide-induced apoptosis [3]: able to inhibit etoposide-induced apoptosis

Inhibition of apoptosis induced by Bax overexpression (Bax [1]): could not protect cells from Bax
Inhibition of STS-induced Bax activation (6A7 Ab-positive cells in GFP-positive cells) (Bax [2]): did not inhibit Bax activation
B1: IFNγR21-295: mutant encoding amino acids 1-295 of IFNγR2, retaining Jak2-binding domain but not the C-terminal 41 amino acids (protein)
chain: APPDPLSQLPAPQHPKIRLYNAEQVLSWEPVALSNSTRPVVYQVQFKYTDSKWFTADIMSIGVNCTQITATECDFTAASPSAGFPMDFNVTLRLRAELGALHSAWVTMPWFQHYRNVTVGPPENIEVTPGEGSLIIRFSSPFDIADTSTAFFCYYVHYWEKGGIQQVKGPFRSNSISLDNLKPSRVYCLQVQAQLLWNKSNIFRVGHLSNISCYETMADASTELQQVILISVGTFSLLSVLAGACFFLVLKYRGLIKYWFHTPPSIPLQIEEYL
modifications: left off: large carriers
Inhibition of etoposide-induced apoptosis [3]: could not
